The source of these data is publication PMC3510510, “Structural insight of a concentration-dependent mechanism by which YdiV inhibits Escherichia coli flagellum biogenesis and motility” (Nucleic Acids Research, 2012).

The labels stand for the following.
B5: YdiV (natural protein, E. coli)
chain: MKIFLENLYHSDCYFLPIRDNQQVLVGVELITHFSSEDGTVRIPTSRVIAQLTEEQHWQLFSEQLELLKSCQHFFIQHKLFAWLNLTPQVATLLLERDNYAGELLKYPFIELLINENYPHLNEGKDNRGLLSLSQVYPLVLGNLGAGNSTMKAVFDGLFTRVMLDKSFIQQQITHRSFEPFIRAIQAQISPCCNCIIAGGIDTAEILAQITPFDFHALQGCLWPAVPINQITTLVQR
notes: YdiV, E. coli; the ydiV gene was cloned into pET29b and pGL01; His-tag removal by PPase is stated for prey proteins of the pull-down; The crystal of YdiV alone (3TLQ) was phased with Se-Met-YdiV; also called native YdiV; wild-type YdiV; source: E. coli BL21(DE3), purified (Ni2+-NTA, Source-Q, Superdex 200)

The test “YdiV” concerns the target B5. Briefly: pull-down; His-tagged bait immobilised on Ni2+-NTA beads, prey with His-tag removed by PPase; 4°C, 30 min; 25 mM Tris-HCl pH 8.0, 100 mM NaCl; eluted with 250 mM imidazole; SDS-PAGE, Coomassie. As to conditions: both partners purified.
Test [1] deals with T1, FlhD4C2 complex (E. coli, UniProt P0A8S9 1-116; P0ABY7 1-192).
T1 sequence 1: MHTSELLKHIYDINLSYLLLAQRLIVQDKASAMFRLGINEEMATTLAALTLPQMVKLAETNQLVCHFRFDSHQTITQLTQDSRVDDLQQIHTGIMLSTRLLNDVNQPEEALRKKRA
T1 sequence 2: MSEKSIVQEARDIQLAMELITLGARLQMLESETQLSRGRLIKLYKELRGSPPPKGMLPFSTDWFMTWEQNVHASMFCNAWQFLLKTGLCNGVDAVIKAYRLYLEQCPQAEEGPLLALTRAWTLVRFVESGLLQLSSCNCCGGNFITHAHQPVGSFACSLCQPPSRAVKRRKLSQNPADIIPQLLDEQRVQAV
Briefly: cell-based or functional assay.

Test [2] deals with T1, FlhD4C2 complex. As to the kind of experiment: SEC; YdiV and FlhD4C2 mixed at molar ratios 5:1, 4:1, 3:1, 2:1 or 1:1 for 10 min at room temperature; Superdex 200; fractions on SDS-PAGE. Conditions: both partners purified.
The target of test [3] is T2, DCmut-1 (FlhDC complex with FlhC K42E, K45E) (E. coli, UniProt P0A8S9 1-116; P0ABY7 1-192, K42E | K45E).
T2 construct: FlhD, E. coli; FlhC, E. coli; Lys42 and Lys45 substituted by Glu; Probably carries the C-terminal His-tag on FlhC as the wild-type complex does; the methods say only that mutants were cloned into pGL01; source: E. coli, purified
T2 sequence 1: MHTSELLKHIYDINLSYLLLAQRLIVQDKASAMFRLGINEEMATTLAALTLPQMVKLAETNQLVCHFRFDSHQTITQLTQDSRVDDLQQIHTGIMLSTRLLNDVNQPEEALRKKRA
T2 sequence 2: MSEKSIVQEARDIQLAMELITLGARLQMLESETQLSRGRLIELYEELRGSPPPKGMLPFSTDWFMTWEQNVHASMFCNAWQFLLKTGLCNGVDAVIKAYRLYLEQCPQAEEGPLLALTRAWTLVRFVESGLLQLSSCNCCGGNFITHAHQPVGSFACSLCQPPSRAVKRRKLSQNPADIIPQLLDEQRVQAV
As to the kind of experiment: pull-down; His-tagged bait immobilised on Ni2+-NTA beads, prey with His-tag removed by PPase; 4°C, 30 min; 25 mM Tris-HCl pH 8.0, 100 mM NaCl; eluted with 250 mM imidazole; SDS-PAGE, Coomassie. Conditions: both partners purified.

Test [4] addresses T3, DCmut-2 (FlhDC complex with FlhC R37E, R39E, K42E, K45E) (E. coli, UniProt P0A8S9 1-116; P0ABY7 1-192, R37E | R39E | K42E | K45E).
T3 construct: FlhD, E. coli; FlhC, E. coli, four substitutions; Probably carries the C-terminal His-tag on FlhC as the wild-type complex does; the methods say only that mutants were cloned into pGL01; source: E. coli, purified
T3 sequence 1: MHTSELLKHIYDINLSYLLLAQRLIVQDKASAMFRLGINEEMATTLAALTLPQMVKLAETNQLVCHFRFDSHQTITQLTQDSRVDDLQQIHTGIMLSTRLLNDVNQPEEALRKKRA
T3 sequence 2: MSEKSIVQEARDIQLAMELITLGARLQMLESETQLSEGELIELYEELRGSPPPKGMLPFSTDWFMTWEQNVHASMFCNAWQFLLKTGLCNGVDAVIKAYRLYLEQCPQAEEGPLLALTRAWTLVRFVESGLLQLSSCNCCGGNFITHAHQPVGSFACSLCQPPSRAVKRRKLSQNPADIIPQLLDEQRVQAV
Described as above. Conditions: both partners purified.

B1: FlhD fragment 1–98aa (domain or fragment, E. coli, UniProt P0A8S9 1-98, looked up)
chain: MHTSELLKHIYDINLSYLLLAQRLIVQDKASAMFRLGINEEMATTLAALTLPQMVKLAETNQLVCHFRFDSHQTITQLTQDSRVDDLQQIHTGIMLST
notes: FlhD, E. coli, residues 1-98; also called FlhD (1–98aa); source: E. coli, purified recombinant protein
For B1, the binding result with YdiV was “binds”.

B2: FlhD fragment 1–71aa (domain or fragment, E. coli, UniProt P0A8S9 1-71, looked up)
chain: MHTSELLKHIYDINLSYLLLAQRLIVQDKASAMFRLGINEEMATTLAALTLPQMVKLAETNQLVCHFRFDS
notes: FlhD, E. coli, residues 1-71; also called FlhD (1–71aa); source: E. coli, purified recombinant protein
Take B2: the binding result with YdiV was “binds”.

B3: FlhD-His (natural protein, E. coli)
chain: MHTSELLKHIYDINLSYLLLAQRLIVQDKASAMFRLGINEEMATTLAALTLPQMVKLAETNQLVCHFRFDSHQTITQLTQDSRVDDLQQIHTGIMLSTRLLNDVNQPEEALRKKRA
notes: FlhD, E. coli; the flhD gene was cloned into pET29b and pGL01; source: E. coli BL21(DE3): co-expressed with YdiV (in lysate); purified as bait for the pull-down
With B3, the binding result with YdiV is “binds”.

B4: FlhD fragment 1–106aa (domain or fragment, E. coli, UniProt P0A8S9 1-106, looked up)
chain: MHTSELLKHIYDINLSYLLLAQRLIVQDKASAMFRLGINEEMATTLAALTLPQMVKLAETNQLVCHFRFDSHQTITQLTQDSRVDDLQQIHTGIMLSTRLLNDVNQ
notes: FlhD, E. coli, residues 1-106; also called FlhD (1–106aa); source: E. coli, purified recombinant protein
On to B4, for which the binding result with YdiV is reported as “binds”.
Usually stoichiometry N stands for a count of units in the complex or per binding partner. As for B5, the “EMSA: DNA binding of FlhD4C2 (49-bp flhB promoter) with 5-fold excess of YdiV and at different molar ratios of YdiV:FlhD4C2” value in the test with FlhD4C2 complex [1] was > 3 molar ratio YdiV:FlhD4C2. For the same molecule, the “stoichiometry N” value in the test with FlhD4C2 complex [2] was determined as 4 YdiV per FlhD4C2. Besides, the binding result in test [3] and in test [4] was “binds” throughout.

B6: FlhD fragment 1–82aa (domain or fragment, E. coli, UniProt P0A8S9 1-82, looked up)
chain: MHTSELLKHIYDINLSYLLLAQRLIVQDKASAMFRLGINEEMATTLAALTLPQMVKLAETNQLVCHFRFDSHQTITQLTQDS
notes: FlhD, E. coli, residues 1-82; also called FlhD (1–82aa); source: E. coli, purified recombinant protein
Consider B6, for which the binding result with YdiV was “binds”.
